In article PMC4671958, “Structure of the Helicase Domain of DNA Polymerase Theta Reveals a Possible Role in the Microhomology-Mediated End-Joining Pathway” (Structure(London, England:1993), 2015):
Several values for one entry are separate records, joined by “and”; a condition that tells them apart may be missing. Equal entries are not always repeated.

Columns and labels:
[1] = biological target: the molecule itself; assay: SEC-MALS; Viscotek TDA 305 system, Shodex KW-803 silica column; in the absence of nucleotide
[2] = biological target: the molecule itself; assay: AUC; sedimentation velocity, absorbance (280 nm) and interference optics; in the absence of nucleotide

B1: DNA polymerase theta helicase domain (Polθ-HLD), residues 67–894 (domain or fragment, human, UniProt O75417 67-894, looked up)
chain: DKLLLANWGLPKAVLEKYHSFGVKKMFEWQAECLLLGQVLEGKNLVYSAPTSAGKTLVAELLILKRVLEMRKKALFILPFVSVAKEKKYYLQSLFQEVGIKVDGYMGSTSPSRHFSSLDIAVCTIERANGLINRLIEENKMDLLGMVVVDELHMLGDSHRGYLLELLLTKICYITRKSASCQADLASSLSNAVQIVGMSATLPNLELVASWLNAELYHTDFRPVPLLESVKVGNSIYDSSMKLVREFEPMLQVKGDEDHVVSLCYETICDNHSVLLFCPSKKWCEKLADIIAREFYNLHHQAEGLVKPSECPPVILEQKELLEVMDQLRRLPSGLDSVLQKTVPWGVAFHHAGLTFEERDIIEGAFRQGLIRVLAATSTLSSGVNLPARRVIIRTPIFGGRPLDILTYKQMVGRAGRKGVDTVGESILICKNSEKSKGIALLQGSLKPVRSCLQRREGEEVTGSMIRAILEIIVGGVASTSQDMHTYAACTFLAASMKEGKQGIQRNQESVQLGAIEACVMWLLENEFIQSTEASDGTEGKVYHPTHLGSATLSSSLSPADTLDIFADLQRAMKGFVLENDLHILYLVTPMFEDWTTIDWYRFFCLWEKLPTSMKRVAELVGVEEGFLARCVKGKVVARTERQHRQMAIHKRFFTSLVLLDLISEVPLREINQKYGCNRGQIQSLQQSAAVYAGMITVFSNRLGWHNMELLLSQFQKRLTFGIQRELCDLVRVSLLNAQRARVLYASGFHTVADLARANIVEVEVILKNAVPFKSARKAVDEEEEAVEERRNMRTIWVTGRKGLTEREAAALIVEEARMILQQDLVEM
notes: DNA polymerase theta (Polθ, POLQ gene), human, helicase domain, residues 67–894; printed monomer mass 93,080 Da; Tetramer in crystals (by crystallographic symmetry) and in solution; Further construct details may stand in the Supplemental Experimental Procedures; also called Polθ helicase domain; 67–894 construct
[1]
  stoichiometry N: ~4
[2]
  stoichiometry N: 4 and 3.2
